Assay results published in the supplement of paper PMC9170038.

System: MS2 coat protein
Assay: apparent KD of MS2 coat protein; designed switch direction (-1 OFF switch, 1 ON switch): 1; higher = weaker reporter binding
Outline: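 The apparent KD reported per design is the median over clusters of curve fits to normalised cluster fluorescence. The RNA switches were transcribed on Illumina chips by stalled E. coli RNA polymerase. SNAP-549-labelled MS2 coat protein was titrated from 0.7 or 1.5 nM, doubling up to 3 µM, in Tris-HCl pH 7.5 buffer containing KCl, MgCl2, BSA, DTT, tRNA and Tween-20, with no input, 200 uM small-molecule ligand, or an oligonucleotide input.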

[1] = input ligand: microRNA oligo, concentration not stated
[2] = Eterna round: R95, input ligand: FMN 200 uM
[3] = Eterna round: R95, input ligand: microRNA oligo, concentration not stated
[4] = Eterna round: R95, input ligand: none

Row | Sequence | apparent KD of MS2 coat protein (input ligand: FMN 200 uM) | apparent KD of MS2 coat protein [1] | apparent KD of MS2 coat protein (input ligand: none) | apparent KD of MS2 coat protein [2] | apparent KD of MS2 coat protein [3] | apparent KD of MS2 coat protein [4]
1 | ACAUGAGACUUAGGAUAUCUUGUACCUACAUGUGACAUGAGGAUCACCCAUGUGGUAAGUAUGACAGAGAAGGAAGAGAUAUGU [Equivalance 68 - Jieux - Same State NG 2] (Eterna round: R96, puzzle: Same State NG 2) | 40.4 nM | 49.9 nM | 79.7 nM | – | – | –
2 | ACAUGAGACUUAGGAUAUCUUGUACCUACAUGUGACAUGAGGAUCACCCAUGUGGUAAGUAUGAGGGAGAAGGAAGAGAUAUGU [Equivalence 38 - Jieux - Same State NG 2] (Eterna round: R96, puzzle: Same State NG 2) | 30.8 nM | 21 nM | 33.9 nM | – | – | –
3 | ACAUGAGAGAAAGGAUAUCAUGUACCUACAUGUGACAUGAGGAUCACCCAUGUGGUAAGUAUGAGUGAGAAGGUUCAGAUAUGU [Equivalence 34 - Jieux - Same State NG 2] (Eterna round: R96, puzzle: Same State NG 2) | 44.4 nM | 298 nM | 448 nM | – | – | –
4 | ACAUGAGAUCUAGGAUAUAUAGUACCUACAUGUGACAUGAGGAUCACCCAUGUGGUAAGUAUGACAUAGAAGGAGAAGAUAUGU [Equivalance 96 - Jieux - Same State NG 2] (Eterna round: R96, puzzle: Same State NG 2) | 37.2 nM | 50.9 nM | 55.5 nM | – | – | –
5 | ACAUGAGGAUCACCCAUGUAUAGAAUUGAAUGUUAAGAUACGUAGGAUAUCGAGUUUAGUAUGAUCGAGAAGGACGAUCUGAUA [JR_SSNG3_Sub065] (Eterna round: R96, puzzle: Same State NG 3) | – | 14.5 nM | – | – | – | –
6 | ACCAAUCCAAUAAAACAAGCGUGCUCGUCACAUGAGGAUCACCCAUGUUCAAGCGCUGUUCCUAAUUCCUCAGCGCC [Ortiat] (puzzle: Sensor for hsa-mir-208a) | – | – | – | 72.3 nM | 22.3 nM | 67.7 nM
7 | ACGCAGCUGGGCAAGGAUAUCGGUGGUAAAACAUGAGGAUCACCCAUGUCCGAAGCUCGGACUUCCGAGAAGGUGCCCGGCUGCG [Soinraesar Omei Mod 8] (puzzle: Same State 2) | – | – | – | 20.1 nM | 119 nM | 238 nM
8 | ACUAGAUCGAAAGAUCUAGAAAACGAGUAACAUGAGGAUCACCCAUGUUCAUGUUGCUCGUCUUAAGCCGAAAGGCG [JL ALT 15] (Eterna round: R96, puzzle: Sensor for hsa-mir-208a) | 71.5 nM | 38 nM | 22.8 nM | – | – | –
9 | ACUCAGUACAAUUUAGAUCUACAUGAGGAUCACCCAUGUACUGAGGAUAUCAGCUCGAAUAGAGCUGAGAAGGCAGUUGUACUA [SSNG3/10-A1] (Eterna round: R96, puzzle: Same State NG 3) | 102 nM | 138 nM | 248 nM | – | – | –
10 | ACUCUACAUGAGGAUCACCCAUGUUGAGCCCAUCAAGGAUAUGGGUCUUAAUCGCGGGUGCCAGAAGGUGAUGGUU [Xesove] (Eterna round: R96, puzzle: Same State 1) | 313 nM | 46.8 nM | 94.3 nM | – | – | –
11 | ACUUAGUACAAUUUAGAUCUACAUGAGGAUCACCCAUGUACUGAGGAUAUCAGCUCGAAUAGAGCUGAGAAGGCAGUAGUACUA [SSNG3/9-A1] (Eterna round: R96, puzzle: Same State NG 3) | 47.4 nM | 42.6 nM | 50.2 nM | – | – | –
12 | ACUUAGUACAAUUUAGAUCUACAUGAGGAUCACCCAUGUACUGAGGAUAUCAGCUCGUUUAGAGCUGAGAAGGCAGAAGUACUU [SSNG3/8-A3] (Eterna round: R96, puzzle: Same State NG 3) | 54.7 nM | 234 nM | 207 nM | – | – | –
